The test system of assay [1] is Aggrecan. The assay can be described thus: BbHtrA proteolysis assay, aggrecan substrate. Format: biochemical, bovine, human. The note with it: SDS-PAGE. On the procedure: (§1) For proteolysis assays described in Examples herein, purified protein substrates (200-600 nM) and proteases (100-150 nM) were diluted in assay buffer (50 mM HEPES, pH 7.4, 5 mM CaCl2) and incubated overnight at 37° C. Samples were boiled for 4 minutes to inactivate the proteases. Proteoglycans were deglycosylated by overnight incubation at 37° C. with 0.01 U chondroitinase ABC (Seikagaku). Reactions were stopped by the addition of SDS/PAGE sample buffer, boiled for 4 minutes, and electrophoresed on pre-cast Tris-glycine gels (BioRad). Reaction products were visualized by silver staining.
(§2) BbHtrA cleaved recombinant human aggrecan (G1-IGD-G2 domains) within the IGD (FIG. 4A). Cleavage of recombinant aggrecan generated three high molecular weight proteolytic fragments which migrated at ˜110 kd, ˜60 kd and ˜50 kd.
(§3) BbHtrA also degraded native, fully glycosylated aggrecan (FIG. 4B, lane 5). Again, this degradation required BbHtrA catalytic activity (FIG. 4B, lane 6). The BbHtrA-generated aggrecan fragments appear to be a doublet, unlike those generated by HtrA1.
(§4) Purified proteins were incubated with BbHtrA or BbHtrA^S226A as described herein. HtrA (also known as DegP) proteases belong to the family of serine proteases which contain a highly reactive serine residue in their active site. This serine (Ser210 in DegP) is part of the canonical His-Ser-Asp catalytic triad and mutation of the catalytic serine abolishes proteolytic activity (Skorko-Glonek et al., 1995). In BbHtrA, residues His119, Ser226 and Asp149 form the catalytic triad and mutation of serine 226 to alanine abolished proteolytic activity as expected (FIG. 5).
(§5) Reaction products were separated by SDS-PAGE and silver stained. Native collagen II and recombinant tenascin C were not degraded by BbHtrA indicating selectivity for proteoglycans, E-cadherin and fibronectin. FIG. 5 is an image of SDS-PAGE analysis showing that BbHtrA degrades aggrecan, neurocan, versican, brevican, biglycan, decorin, E-cadherin, and casein.

Assay [2] has as its target T1, Aggrecan (Bos taurus, UniProt P13608).
T1 construct: recombinant human aggrecan (G1-IGD-G2 domains)
The assay can be described thus: BbHtrA proteolysis assay, aggrecan substrate. In kind it is biochemical, bovine, human. To be noted: native bovine aggrecan, SDS-PAGE, FIG. 4B. The procedure: as §1, §2, §3, §4, §5

For assay [3], the target named is T2, Brevican (Homo sapiens, UniProt Q96GW7).
T2 sequence (Q96GW7 23-911): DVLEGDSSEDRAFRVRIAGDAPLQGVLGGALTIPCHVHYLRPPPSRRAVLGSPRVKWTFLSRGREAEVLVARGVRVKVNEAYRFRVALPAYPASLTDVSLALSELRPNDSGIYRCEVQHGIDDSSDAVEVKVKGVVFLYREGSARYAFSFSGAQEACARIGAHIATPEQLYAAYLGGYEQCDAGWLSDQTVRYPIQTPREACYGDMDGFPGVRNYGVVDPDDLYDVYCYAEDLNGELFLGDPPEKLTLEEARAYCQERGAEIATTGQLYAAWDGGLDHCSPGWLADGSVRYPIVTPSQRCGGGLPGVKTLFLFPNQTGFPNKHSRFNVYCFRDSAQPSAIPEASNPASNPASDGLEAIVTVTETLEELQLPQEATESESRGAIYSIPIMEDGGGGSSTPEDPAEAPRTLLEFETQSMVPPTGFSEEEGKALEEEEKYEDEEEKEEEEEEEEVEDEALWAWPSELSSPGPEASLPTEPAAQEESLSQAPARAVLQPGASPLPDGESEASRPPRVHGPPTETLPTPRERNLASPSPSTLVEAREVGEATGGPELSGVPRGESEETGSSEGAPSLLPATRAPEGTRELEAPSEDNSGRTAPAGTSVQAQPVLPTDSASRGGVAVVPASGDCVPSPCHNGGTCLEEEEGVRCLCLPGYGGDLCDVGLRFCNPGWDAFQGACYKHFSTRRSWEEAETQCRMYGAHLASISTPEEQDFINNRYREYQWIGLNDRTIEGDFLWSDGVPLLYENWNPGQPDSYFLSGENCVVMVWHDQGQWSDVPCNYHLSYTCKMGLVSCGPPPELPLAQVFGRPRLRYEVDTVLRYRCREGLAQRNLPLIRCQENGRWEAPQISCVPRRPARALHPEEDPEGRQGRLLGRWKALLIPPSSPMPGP
The assay can be described thus: BbHtrA proteolysis assay, brevican substrate. In kind it is biochemical. To be noted: SDS-PAGE, FIG. 5. On the procedure: as §1, §4
Reaction products were separated by SDS-PAGE and silver stained. Native collagen II and recombinant tenascin C were not degraded by BbHtrA indicating selectivity for proteoglycans, E-cadherin and fibronectin. […]

T1 sequence (P13608 17-2364): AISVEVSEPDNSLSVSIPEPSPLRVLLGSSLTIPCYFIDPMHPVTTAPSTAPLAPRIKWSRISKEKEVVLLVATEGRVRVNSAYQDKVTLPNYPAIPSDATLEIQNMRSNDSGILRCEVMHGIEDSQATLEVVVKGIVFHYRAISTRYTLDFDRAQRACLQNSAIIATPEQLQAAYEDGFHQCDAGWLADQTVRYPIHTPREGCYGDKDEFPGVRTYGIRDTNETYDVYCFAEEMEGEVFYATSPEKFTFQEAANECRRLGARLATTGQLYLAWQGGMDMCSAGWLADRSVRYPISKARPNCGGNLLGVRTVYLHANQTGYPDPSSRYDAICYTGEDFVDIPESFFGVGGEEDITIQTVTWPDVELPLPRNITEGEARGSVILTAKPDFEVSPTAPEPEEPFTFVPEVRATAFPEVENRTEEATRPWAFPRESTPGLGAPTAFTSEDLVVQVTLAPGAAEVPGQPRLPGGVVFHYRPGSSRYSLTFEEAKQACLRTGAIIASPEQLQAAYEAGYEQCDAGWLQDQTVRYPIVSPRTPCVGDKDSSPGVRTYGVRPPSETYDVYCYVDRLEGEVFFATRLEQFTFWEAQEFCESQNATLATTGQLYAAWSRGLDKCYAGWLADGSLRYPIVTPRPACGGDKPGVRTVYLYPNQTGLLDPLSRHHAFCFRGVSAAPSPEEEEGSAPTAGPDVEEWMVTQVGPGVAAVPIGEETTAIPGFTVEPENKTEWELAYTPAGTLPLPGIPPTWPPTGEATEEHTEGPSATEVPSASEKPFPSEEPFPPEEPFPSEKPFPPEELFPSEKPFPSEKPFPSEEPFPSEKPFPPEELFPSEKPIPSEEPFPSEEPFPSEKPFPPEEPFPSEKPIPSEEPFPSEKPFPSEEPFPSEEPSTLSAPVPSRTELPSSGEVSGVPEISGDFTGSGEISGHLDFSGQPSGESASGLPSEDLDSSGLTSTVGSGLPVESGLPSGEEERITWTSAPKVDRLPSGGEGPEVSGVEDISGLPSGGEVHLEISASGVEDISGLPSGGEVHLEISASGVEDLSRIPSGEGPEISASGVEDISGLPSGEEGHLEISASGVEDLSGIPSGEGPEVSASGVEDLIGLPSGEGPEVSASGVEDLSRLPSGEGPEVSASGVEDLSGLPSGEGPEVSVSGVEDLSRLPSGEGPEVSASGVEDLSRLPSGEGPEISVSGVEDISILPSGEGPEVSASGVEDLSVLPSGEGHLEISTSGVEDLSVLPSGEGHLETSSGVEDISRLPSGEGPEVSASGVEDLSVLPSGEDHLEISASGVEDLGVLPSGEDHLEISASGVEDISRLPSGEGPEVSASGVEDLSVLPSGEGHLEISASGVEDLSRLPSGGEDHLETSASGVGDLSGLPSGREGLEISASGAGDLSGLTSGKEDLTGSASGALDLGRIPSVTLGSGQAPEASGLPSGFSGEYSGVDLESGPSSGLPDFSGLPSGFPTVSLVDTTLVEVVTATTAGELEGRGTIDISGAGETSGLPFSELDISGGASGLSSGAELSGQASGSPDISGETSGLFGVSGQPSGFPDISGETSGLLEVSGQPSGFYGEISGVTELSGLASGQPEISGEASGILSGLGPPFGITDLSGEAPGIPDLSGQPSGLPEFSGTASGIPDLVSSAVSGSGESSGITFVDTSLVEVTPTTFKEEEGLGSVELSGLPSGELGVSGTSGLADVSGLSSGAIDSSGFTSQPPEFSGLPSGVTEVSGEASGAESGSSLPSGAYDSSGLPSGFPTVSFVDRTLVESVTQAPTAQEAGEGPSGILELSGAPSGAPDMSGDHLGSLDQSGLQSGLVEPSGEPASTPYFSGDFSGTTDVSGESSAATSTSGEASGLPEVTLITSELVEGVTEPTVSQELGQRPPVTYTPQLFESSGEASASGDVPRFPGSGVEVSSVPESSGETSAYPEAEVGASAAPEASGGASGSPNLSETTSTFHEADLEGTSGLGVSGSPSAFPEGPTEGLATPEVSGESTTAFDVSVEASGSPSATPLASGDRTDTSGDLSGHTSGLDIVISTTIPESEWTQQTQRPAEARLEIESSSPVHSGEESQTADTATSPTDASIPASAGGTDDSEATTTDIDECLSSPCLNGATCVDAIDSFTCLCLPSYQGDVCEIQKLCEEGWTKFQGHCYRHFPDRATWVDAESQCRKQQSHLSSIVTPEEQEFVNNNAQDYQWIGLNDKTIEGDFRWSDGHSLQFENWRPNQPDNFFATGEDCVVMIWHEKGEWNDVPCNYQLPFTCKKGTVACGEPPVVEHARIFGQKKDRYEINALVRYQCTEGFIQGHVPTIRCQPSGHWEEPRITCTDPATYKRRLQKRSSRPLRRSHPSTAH

B1: BbHtrA: Recombinant wild type B. burgdorferi HtrA serine protease, mature protein amino acids 38-474, expressed in E. coli (SEQ ID NO:1, 9) (protein, listed as Borrelia burgdorferi)
chain: EEKDNTVRALQDSFREVSKKILPSSVEVHATGVIKQSFPIPFFFFDMPEFDSERKSNWAGSGVIIGRDSQKKSLFYVVTNSHVVDKATELEVVSYDKKKHKAKLIGKDEKKDIALISFESDDATIKVADLGDSDKLEIGDWVMAVGSPFQFSFTVTAGIVSGLQRSANPNLQSRNLFIQTDAAINRGNSGGPLVNIKGEVIGINAWIASNSGGNIGLGFAIPVNNIKSTVDFFLKGKKIESAWLGISFYPLKTRDSEVLKSLGVESNDVSAAIIASLYPGSPAVKSGLRAGDIIMKVNGVSMSVFQDVTSYISDFYAGEKVNVEILRGNVKKNIEIVLAVRPKDKELSSSKMLPGFVVYPLVEDIKAQLNLRNWIKGVVVDYIDKNLASNIKMKSGDVILSVNSKSVSNLREFYDALEVGKNTYKILRGNDSFKITF
B1: in assay [1] (FIG. 5), the Degradation of aggrecan entry was “degrades”. In addition, the “Cleavage of recombinant human aggrecan (G1-IGD-G2 domains) within the IGD” value in assay [1] (silver stain, FIG. 4A) is given as “cleaved”. Also, in assay [2], the “Degradation of native, fully glycosylated aggrecan” value is on record as “degraded”. Moreover, the Degradation of brevican entry in assay [3] was “degrades”.

The values above are taken from US9383360B2, “Compositions and methods relating to lyme disease” (The United States of America, as represented by the …, priority 2012, dated 2016).
